From doi:10.1101/2023.07.23.550228 come the findings set out here.

The test concerns the target GvpT (B. megaterium). Nature of the test: SDS-PAGE and Western blot.

For GvpT (natural protein), the stoichiometry N (in general, the number of molecules, sites or subunits per partner or assembly) is 2.
